The target of test [1] is M2 protein of A/Puerto Rico/8/34 (H1N1), on cells (Influenza A virus A/Puerto Rico/8/34 (H1N1)) (UniProt P06821). The test is described as follows: flow cytometry on MDCK cells infected with A/Puerto Rico/8/34. On the technique in general: A flow cytometer gives signals particle by particle.
Test [2] concerns the target M2e peptide … (23mer synthetic peptide of M2 derived from A/Fort Worth/1/50) (Influenza A virus A/Fort Worth/1/50 (H1N1)). The test is described as follows: ELISA, peptide 2 µg/mL, mAb 5 µg/mL. A general note: ELISA stands for enzyme-linked immunosorbent assay.
The next test concerns the target M2e. The test is described as follows: ELISA, peptide 2 µg/mL, mAb 5 µg/mL.
Test [3] addresses M2e peptide … (23mer synthetic peptide of M2 derived from A/Fort Worth/1/50) (Influenza A virus A/Fort Worth/1/50 (H1N1)). The test is described as follows: ELISA, peptide coated at 1 µg/ml.
The target of the next test is T1, A.Hong Kong.1180.99 H3N2.
T1 M2: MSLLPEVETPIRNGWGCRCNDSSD
The test is described as follows: FACS, transfected HEK293 [D00006 FIG. 3C-1].

The target of another test is T2, A.Hong Kong.1144.99.H3N2.
T2 M2: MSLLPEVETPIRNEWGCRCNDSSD
The test is described as follows: FACS, transfected HEK293 [D00006 FIG. 3C-1].

A further test addresses M16. The test is described as follows: ELISA, peptide 2 µg/mL, mAb 5 µg/mL.
A further test concerns the target NM17. The test is described as follows: ELISA, peptide 2 µg/mL, mAb 5 µg/mL.
Test [4] addresses M2e peptide … (23mer synthetic peptide of M2 derived from A/Fort Worth/1/50) (Influenza A virus A/Fort Worth/1/50 (H1N1)). The test is described as follows: ELISA, peptide 2 µg/mL, mAb 5 µg/mL. This is another data set of the same source.
The next test addresses NM15. The test is described as follows: ELISA, peptide 2 µg/mL, mAb 5 µg/mL.
In a further test the target is M15. The test is described as follows: ELISA, peptide 2 µg/mL, mAb 5 µg/mL.
The next test has as its target T3, A.Caracas.1.71.H3N2.
T3 M2: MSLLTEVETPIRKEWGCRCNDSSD
The test is described as follows: FACS, transfected HEK293, mAb 1 µg/ml [D00006 FIG. 3C-1].

The next test has as its target T4, A.Hong Kong.1.68.H3N2.
T4 M2: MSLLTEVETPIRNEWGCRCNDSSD
The test is described as above.

Test [5] addresses T5, A.X-31 Vaccine strain H3N2.
T5 M2: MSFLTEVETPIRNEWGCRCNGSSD
The test is described as above.

Like-named read-outs stand apart in the source and are kept apart here.

The term EC50 (read off the curve) denotes the concentration needed to bring the measured effect to its halfway point. A higher EC50 (read off the curve) goes with lower potency in that assay. Usually EC50 stands for the concentration needed to bring the measured effect to its halfway point. The low end stands for a more potent agent, the high end for a less potent agent.

“14C2 (chimeric mouse V-region/human IgG1 kappa 14C2 antibody)” gave a 50% effective concentration (EC50 (read off the curve)) in test [1] of 300 ng/mL. For the same molecule, the binding activity (ELISA A450) in test [2] was 3.85; with M2e, 3.98. For the same molecule, the EC50 in [3] stood at 0.01 µg/mL.

B1: 23K12 (antibody, V domains shown)
VH: EVQLVESGGGLVQPGGSLRISCAASGFTVSSNYMSWVRQAPGKGLEWVSVIYSGGSTYYADSVKGRFSFSRDNSKNTVFLQMNSLRAEDTAVYYCARCLSRMRGYGLDVWGQGTTVTVS
VL: DIQMTQSPSSLSASVGDRVTITCRTSQSISSYLNWYQQKPGKAPKLLIYAASSLQSGVPSRFSGSGSGTDFTLTISGLQPEDFATYYCQQSYSMPAFGQGTKLEIK
For the molecule B1, the binding result with A.Hong Kong.1180.99 H3N2 was “no binding (tested: 1 µg/ml)”; in the test with A.Hong Kong.1144.99.H3N2 it was “no binding (tested: 1 µg/ml)”; with A.Caracas.1.71.H3N2 it was “binds”; in the test with A.Hong Kong.1.68.H3N2, “binds”; in test [5], “binds”. Also, the binding activity (ELISA A450) with M16 amounted to 0.21; in the test with NM17, 0.58; in [4] it was 0.22; in the test with NM15, 0.3; in the test with M15, 0.21.

B2: 8i10 (antibody, V domains shown)
VH: QVQLQESGPGLVKPSETLSLTCTVSGSSISNYYWSWIRQSPGKGLEWIGFIYYGGNTKYNPSLKSRVTISQDTSKSQVSLTMSSVTAAESAVYFCARASCSGGYCILDYWGQGTLVTVS
VL: DIQMTQSPSSLSASVGDRVTITCRASQNIYKYLNWYQQRPGKAPKGLISAASGLQSGVPSRFSGSGSGTDFTLTITSLQPEDFATYYCQQSYSPPLTFGGGTRVEIK
Take B2: the binding result (with A.Caracas.1.71.H3N2; in test [5]) was “binds” throughout.

(Values after patent publication US20130158238A1 (THERACLONE SCIENCES, published 2013).)
